{
  "source": "the Human Domainome abundance scans (Beltran et al. 2025)",
  "note": "± gives the uncertainty stated by the source.",
  "data": [
    {"experiment": "abundance fitness (aPCA) (normalised: wild type 0, dead -1); higher = more abundant; growth selection in yeast, the domain comes from the species named", "conditions": "Homo sapiens", "values": [
      {"substance": "E3 ubiquitin-protein ligase NEDD4-like D204A, Q96PU5", "abundance fitness": "-0.392 ± 0.068"},
      {"substance": "E3 ubiquitin-protein ligase NEDD4-like D204C, Q96PU5", "abundance fitness": "-0.151 ± 0.099"},
      {"substance": "E3 ubiquitin-protein ligase NEDD4-like D204E, Q96PU5", "abundance fitness": "-0.505 ± 0.089"},
      {"substance": "E3 ubiquitin-protein ligase NEDD4-like D204G, Q96PU5", "abundance fitness": "-0.491 ± 0.057"},
      {"substance": "E3 ubiquitin-protein ligase NEDD4-like D204H, Q96PU5", "abundance fitness": "-0.684 ± 0.14"},
      {"substance": "E3 ubiquitin-protein ligase NEDD4-like D204I, Q96PU5", "abundance fitness": "-1.04 ± 0.17"},
      {"substance": "E3 ubiquitin-protein ligase NEDD4-like D204K, Q96PU5", "abundance fitness": "-0.894 ± 0.13"},
      {"substance": "E3 ubiquitin-protein ligase NEDD4-like D204L, Q96PU5", "abundance fitness": "-0.803 ± 0.072"},
      {"substance": "E3 ubiquitin-protein ligase NEDD4-like D204M, Q96PU5", "abundance fitness": "-0.751 ± 0.075"},
      {"substance": "E3 ubiquitin-protein ligase NEDD4-like D204N, Q96PU5", "abundance fitness": "-0.451 ± 0.14"},
      {"substance": "E3 ubiquitin-protein ligase NEDD4-like D204P, Q96PU5", "abundance fitness": "-0.897 ± 0.15"},
      {"substance": "E3 ubiquitin-protein ligase NEDD4-like D204Q, Q96PU5", "abundance fitness": "-0.668 ± 0.077"},
      {"substance": "E3 ubiquitin-protein ligase NEDD4-like D204R, Q96PU5", "abundance fitness": "-1.03 ± 0.062"},
      {"substance": "E3 ubiquitin-protein ligase NEDD4-like D204S, Q96PU5", "abundance fitness": "-0.037 ± 0.064"},
      {"substance": "E3 ubiquitin-protein ligase NEDD4-like D204V, Q96PU5", "abundance fitness": "-0.908 ± 0.074"},
      {"substance": "E3 ubiquitin-protein ligase NEDD4-like D204W, Q96PU5", "abundance fitness": "-1.4 ± 0.12"},
      {"substance": "E3 ubiquitin-protein ligase NEDD4-like D228A, Q96PU5", "abundance fitness": "-0.091 ± 0.07"},
      {"substance": "E3 ubiquitin-protein ligase NEDD4-like D228C, Q96PU5", "abundance fitness": "-0.332 ± 0.067"},
      {"substance": "E3 ubiquitin-protein ligase NEDD4-like D228E, Q96PU5", "abundance fitness": "0.062 ± 0.09"},
      {"substance": "E3 ubiquitin-protein ligase NEDD4-like D228F, Q96PU5", "abundance fitness": "-0.329 ± 0.11"},
      {"substance": "E3 ubiquitin-protein ligase NEDD4-like D228G, Q96PU5", "abundance fitness": "0.031 ± 0.056"},
      {"substance": "E3 ubiquitin-protein ligase NEDD4-like D228H, Q96PU5", "abundance fitness": "0.122 ± 0.079"},
      {"substance": "E3 ubiquitin-protein ligase NEDD4-like D228I, Q96PU5", "abundance fitness": "-0.474 ± 0.12"},
      {"substance": "E3 ubiquitin-protein ligase NEDD4-like D228K, Q96PU5", "abundance fitness": "-0.002 ± 0.079"},
      {"substance": "E3 ubiquitin-protein ligase NEDD4-like D228L, Q96PU5", "abundance fitness": "-0.14 ± 0.062"},
      {"substance": "E3 ubiquitin-protein ligase NEDD4-like D228M, Q96PU5", "abundance fitness": "-0.175 ± 0.099"},
      {"substance": "E3 ubiquitin-protein ligase NEDD4-like D228N, Q96PU5", "abundance fitness": "0.063 ± 0.097"},
      {"substance": "E3 ubiquitin-protein ligase NEDD4-like D228P, Q96PU5", "abundance fitness": "0.099 ± 0.07"},
      {"substance": "E3 ubiquitin-protein ligase NEDD4-like D228Q, Q96PU5", "abundance fitness": "-0.277 ± 0.085"},
      {"substance": "E3 ubiquitin-protein ligase NEDD4-like D228R, Q96PU5", "abundance fitness": "-0.101 ± 0.061"},
      {"substance": "E3 ubiquitin-protein ligase NEDD4-like D228S, Q96PU5", "abundance fitness": "-0.053 ± 0.059"},
      {"substance": "E3 ubiquitin-protein ligase NEDD4-like D228T, Q96PU5", "abundance fitness": "0.042 ± 0.076"},
      {"substance": "E3 ubiquitin-protein ligase NEDD4-like D228V, Q96PU5", "abundance fitness": "-0.159 ± 0.071"},
      {"substance": "E3 ubiquitin-protein ligase NEDD4-like D228W, Q96PU5", "abundance fitness": "-0.419 ± 0.064"},
      {"substance": "E3 ubiquitin-protein ligase NEDD4-like E188A, Q96PU5", "abundance fitness": "-0.854 ± 0.29"},
      {"substance": "E3 ubiquitin-protein ligase NEDD4-like E188G, Q96PU5", "abundance fitness": "-1.07 ± 0.49"},
      {"substance": "E3 ubiquitin-protein ligase NEDD4-like E188L, Q96PU5", "abundance fitness": "-0.459 ± 0.28"},
      {"substance": "E3 ubiquitin-protein ligase NEDD4-like E188S, Q96PU5", "abundance fitness": "0.089 ± 0.22"},
      {"substance": "E3 ubiquitin-protein ligase NEDD4-like E188V, Q96PU5", "abundance fitness": "0.297 ± 0.2"},
      {"substance": "E3 ubiquitin-protein ligase NEDD4-like E189A, Q96PU5", "abundance fitness": "-0.356 ± 0.065"},
      {"substance": "E3 ubiquitin-protein ligase NEDD4-like E189C, Q96PU5", "abundance fitness": "-0.176 ± 0.062"},
      {"substance": "E3 ubiquitin-protein ligase NEDD4-like E189D, Q96PU5", "abundance fitness": "-0.189 ± 0.093"},
      {"substance": "E3 ubiquitin-protein ligase NEDD4-like E189G, Q96PU5", "abundance fitness": "-0.241 ± 0.058"},
      {"substance": "E3 ubiquitin-protein ligase NEDD4-like E189H, Q96PU5", "abundance fitness": "-0.242 ± 0.13"},
      {"substance": "E3 ubiquitin-protein ligase NEDD4-like E189I, Q96PU5", "abundance fitness": "0.107 ± 0.13"},
      {"substance": "E3 ubiquitin-protein ligase NEDD4-like E189K, Q96PU5", "abundance fitness": "-0.026 ± 0.082"},
      {"substance": "E3 ubiquitin-protein ligase NEDD4-like E189L, Q96PU5", "abundance fitness": "-0.278 ± 0.065"},
      {"substance": "E3 ubiquitin-protein ligase NEDD4-like E189M, Q96PU5", "abundance fitness": "-0.477 ± 0.081"},
      {"substance": "E3 ubiquitin-protein ligase NEDD4-like E189N, Q96PU5", "abundance fitness": "0.222 ± 0.095"},
      {"substance": "E3 ubiquitin-protein ligase NEDD4-like E189P, Q96PU5", "abundance fitness": "-0.384 ± 0.093"},
      {"substance": "E3 ubiquitin-protein ligase NEDD4-like E189Q, Q96PU5", "abundance fitness": "-0.062 ± 0.097"},
      {"substance": "E3 ubiquitin-protein ligase NEDD4-like E189R, Q96PU5", "abundance fitness": "-0.23 ± 0.055"},
      {"substance": "E3 ubiquitin-protein ligase NEDD4-like E189S, Q96PU5", "abundance fitness": "-0.136 ± 0.065"},
      {"substance": "E3 ubiquitin-protein ligase NEDD4-like E189T, Q96PU5", "abundance fitness": "-0.087 ± 0.077"},
      {"substance": "E3 ubiquitin-protein ligase NEDD4-like E189V, Q96PU5", "abundance fitness": "-0.267 ± 0.069"},
      {"substance": "E3 ubiquitin-protein ligase NEDD4-like E189W, Q96PU5", "abundance fitness": "-0.56 ± 0.065"},
      {"substance": "E3 ubiquitin-protein ligase NEDD4-like E189Y, Q96PU5", "abundance fitness": "0.16 ± 0.1"},
      {"substance": "E3 ubiquitin-protein ligase NEDD4-like E200A, Q96PU5", "abundance fitness": "-0.105 ± 0.062"},
      {"substance": "E3 ubiquitin-protein ligase NEDD4-like E200C, Q96PU5", "abundance fitness": "-0.092 ± 0.08"},
      {"substance": "E3 ubiquitin-protein ligase NEDD4-like E200D, Q96PU5", "abundance fitness": "-0.346 ± 0.081"},
      {"substance": "E3 ubiquitin-protein ligase NEDD4-like E200F, Q96PU5", "abundance fitness": "-0.328 ± 0.083"},
      {"substance": "E3 ubiquitin-protein ligase NEDD4-like E200G, Q96PU5", "abundance fitness": "-0.299 ± 0.059"},
      {"substance": "E3 ubiquitin-protein ligase NEDD4-like E200H, Q96PU5", "abundance fitness": "-0.721 ± 0.18"},
      {"substance": "E3 ubiquitin-protein ligase NEDD4-like E200K, Q96PU5", "abundance fitness": "-0.161 ± 0.062"},
      {"substance": "E3 ubiquitin-protein ligase NEDD4-like E200L, Q96PU5", "abundance fitness": "-0.266 ± 0.08"},
      {"substance": "E3 ubiquitin-protein ligase NEDD4-like E200M, Q96PU5", "abundance fitness": "-0.152 ± 0.074"},
      {"substance": "E3 ubiquitin-protein ligase NEDD4-like E200N, Q96PU5", "abundance fitness": "-0.471 ± 0.13"},
      {"substance": "E3 ubiquitin-protein ligase NEDD4-like E200P, Q96PU5", "abundance fitness": "-1.29 ± 0.2"},
      {"substance": "E3 ubiquitin-protein ligase NEDD4-like E200Q, Q96PU5", "abundance fitness": "-0.072 ± 0.11"},
      {"substance": "E3 ubiquitin-protein ligase NEDD4-like E200R, Q96PU5", "abundance fitness": "-0.31 ± 0.065"},
      {"substance": "E3 ubiquitin-protein ligase NEDD4-like E200S, Q96PU5", "abundance fitness": "-0.166 ± 0.077"},
      {"substance": "E3 ubiquitin-protein ligase NEDD4-like E200T, Q96PU5", "abundance fitness": "-0.138 ± 0.081"},
      {"substance": "E3 ubiquitin-protein ligase NEDD4-like E200V, Q96PU5", "abundance fitness": "-0.179 ± 0.084"},
      {"substance": "E3 ubiquitin-protein ligase NEDD4-like E200W, Q96PU5", "abundance fitness": "-0.603 ± 0.069"},
      {"substance": "E3 ubiquitin-protein ligase NEDD4-like E200Y, Q96PU5", "abundance fitness": "-0.357 ± 0.072"},
      {"substance": "E3 ubiquitin-protein ligase NEDD4-like E201A, Q96PU5", "abundance fitness": "-0.1 ± 0.066"},
      {"substance": "E3 ubiquitin-protein ligase NEDD4-like E201C, Q96PU5", "abundance fitness": "-0.084 ± 0.09"},
      {"substance": "E3 ubiquitin-protein ligase NEDD4-like E201F, Q96PU5", "abundance fitness": "-0.412 ± 0.14"},
      {"substance": "E3 ubiquitin-protein ligase NEDD4-like E201G, Q96PU5", "abundance fitness": "-0.282 ± 0.05"},
      {"substance": "E3 ubiquitin-protein ligase NEDD4-like E201H, Q96PU5", "abundance fitness": "-0.223 ± 0.13"},
      {"substance": "E3 ubiquitin-protein ligase NEDD4-like E201L, Q96PU5", "abundance fitness": "-0.257 ± 0.061"},
      {"substance": "E3 ubiquitin-protein ligase NEDD4-like E201M, Q96PU5", "abundance fitness": "-0.066 ± 0.11"},
      {"substance": "E3 ubiquitin-protein ligase NEDD4-like E201N, Q96PU5", "abundance fitness": "-0.212 ± 0.06"},
      {"substance": "E3 ubiquitin-protein ligase NEDD4-like E201P, Q96PU5", "abundance fitness": "-0.255 ± 0.091"},
      {"substance": "E3 ubiquitin-protein ligase NEDD4-like E201Q, Q96PU5", "abundance fitness": "-0.228 ± 0.12"},
      {"substance": "E3 ubiquitin-protein ligase NEDD4-like E201R, Q96PU5", "abundance fitness": "-0.209 ± 0.057"},
      {"substance": "E3 ubiquitin-protein ligase NEDD4-like E201S, Q96PU5", "abundance fitness": "-0.124 ± 0.061"},
      {"substance": "E3 ubiquitin-protein ligase NEDD4-like E201T, Q96PU5", "abundance fitness": "-0.098 ± 0.1"},
      {"substance": "E3 ubiquitin-protein ligase NEDD4-like E201V, Q96PU5", "abundance fitness": "-0.14 ± 0.052"},
      {"substance": "E3 ubiquitin-protein ligase NEDD4-like E201W, Q96PU5", "abundance fitness": "-0.423 ± 0.065"},
      {"substance": "E3 ubiquitin-protein ligase NEDD4-like E201Y, Q96PU5", "abundance fitness": "-0.278 ± 0.056"},
      {"substance": "E3 ubiquitin-protein ligase NEDD4-like E232A, Q96PU5", "abundance fitness": "-0.173 ± 0.11"},
      {"substance": "E3 ubiquitin-protein ligase NEDD4-like E232D, Q96PU5", "abundance fitness": "-0.354 ± 0.12"},
      {"substance": "E3 ubiquitin-protein ligase NEDD4-like E232G, Q96PU5", "abundance fitness": "-0.287 ± 0.12"},
      {"substance": "E3 ubiquitin-protein ligase NEDD4-like E232H, Q96PU5", "abundance fitness": "-0.574 ± 0.18"}
    ]}
  ]
}
